This is an account of results in patent US20210253636A1.

The target of assay [1] is peptide-binding domain of GRP78 (GRP78-PBD, amino acids 421-639) (UniProt P11021). Description: SPR (BIACORE T200), N-biotin peptide on streptavidin CM5 chip, GRP78-PBD analyte.
For assay [2] the target is unchanged. Put plainly: SPR (BIACORE T200), C-terminal biotin peptide on streptavidin CM5 chip, GRP78-PBD analyte.

Where no end group is shown, it is not given here. The star is where a group is joined. biotin = biotin label attached through an aminohexanoic acid linker; Biotin = O=C1N[C@H]2[C@H](CS[C@H]2CCCCC(=O)*)N1; Ahx = NCCCCCC(=O)O

peptide-binding domain of GRP78 (GRP78-PBD, amino acids 421-639), sequence (P11021 421-639 limits assumed, form in doubt): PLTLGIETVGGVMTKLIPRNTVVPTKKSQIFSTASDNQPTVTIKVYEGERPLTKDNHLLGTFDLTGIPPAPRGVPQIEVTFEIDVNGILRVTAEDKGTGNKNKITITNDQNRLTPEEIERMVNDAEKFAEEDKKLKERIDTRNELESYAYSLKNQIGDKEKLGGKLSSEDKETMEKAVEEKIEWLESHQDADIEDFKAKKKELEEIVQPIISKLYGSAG

With {biotin-Ahx}-GGGGSRPFLFPFLFY [F4P13-TR-CTP, N-terminally extended with GGGGS and N-terminally biotin-labeled], in assay [1], the Kd is 2.1 µM, the koff is 0.0017 s⁻¹ and the kon stood at 790 M⁻¹ s⁻¹.

Turning to {biotin-Ahx}-GGGGSRLLDTNRPFLFY [P13-CTP, N-terminally extended with GGGGS and N-terminally biotin-labeled], in assay [1], the Kd is 2.7 µM, the dissociation rate constant (koff) amounted to 0.0034 s⁻¹ and the on-rate (kon) stood at 1200 M⁻¹ s⁻¹.

For {biotin-Ahx}-GGGGSRLLDTNRPFLPY [P6-CTP, N-terminally extended with GGGGS and N-terminally biotin-labeled], in assay [1], the dissociation constant Kd turned out to be 1.9 µM, the koff was determined as 0.003 s⁻¹ and the kon amounted to 1500 M⁻¹ s⁻¹.

As for RLLDTNRPFLFYGGGGSK(Biotin) [P13-CTP-cBiotin (P13-CTP extended at the C-terminus with GGGGSK, biotin on the C-terminal lysine)], in assay [2], the equilibrium dissociation constant (Kd) amounted to 2.7 µM, the off-rate (koff) was 0.002 s⁻¹ and the association rate constant (kon) was found to be 970 M⁻¹ s⁻¹.

Consider {biotin-Ahx}-GGGGSRPFLPFLPY [F4P6-TR-CTP, N-terminally extended with GGGGS and N-terminally biotin-labeled], for which, in assay [1], the Kd was determined as 1.2 µM, the koff came out at 0.0028 s⁻¹ and the on-rate (kon) turned out to be 2300 M⁻¹ s⁻¹.

In assay [1], {biotin-Ahx}-GGGGSRPFLFPFLFYRPFLFPFLFY [F5P13-TR-CTP, N-terminally extended with GGGGS and N-terminally biotin-labeled] displayed a Kd of 0.61 µM, a koff of 0.0012 s⁻¹ and a kon of 1900 M⁻¹ s⁻¹.

In assay [1], {biotin-Ahx}-GGGGSRPFLPFLPYRPFLPFLPY [F5P6-TR-CTP, N-terminally extended with GGGGS and N-terminally biotin-labeled] gave a dissociation constant (Kd) of 1 µM, a koff of 0.00091 s⁻¹ and a kon of 890 M⁻¹ s⁻¹.

With RPFLFPFLFYGGGGSK(Biotin), in assay [2], the Kd stood at 0.66 µM, the koff stood at 0.0012 s⁻¹ and the kon amounted to 1800 M⁻¹ s⁻¹.

Consider MRPFLFPFLFYGGGGSK(Biotin), for which, in assay [2], the Kd came to 1.2 µM, the koff stood at 0.00029 s⁻¹ and the kon was determined as 240 M⁻¹ s⁻¹.
